Reference: PMC5216119, “An allosteric conduit facilitates dynamic multisite substrate recognition by the SCF^Cdc4 ubiquitin ligase” (Nature Communications, 2017)
Where two headings read alike, the source gives them in different places. Square brackets hold non-standard residues; d marks the D form. Ends that are not written are not given here. Peptide text beside a SMILES is read from it. pT = C[C@@H](OP(=O)(O)O)[C@H](N)C(=O)O; pS = N[C@@H](COP(=O)(O)O)C(=O)O

What was measured:
R664Q Cdc4^WD40 [1] = molecular target: T1, R664Q Cdc4^WD40 (Saccharomyces cerevisiae, UniProt P07834, R664Q); format: binding, yeast; conditions: in vitro Trp fluorescence
T1 construct: Cdc4^WD40 (residues 367-744) was expressed from pET-Sumo (Invitrogen); His-SUMO (pET-Sumo vector) (N, cleaved yes); made in house; host or cells: Escherichia coli (host printed only for the NMR samples)
Protocol: We assessed the contribution of the allosteric pocket to substrate interactions by mutation of positively charged Arg655 and Arg664 residues, both of which are required for SCF-I2 inhibition. We generated Arg655Gln and Arg664Gln substitution mutants to minimize disruptive steric effects on the allosteric pocket and WD40 domain.
The binding affinities of three different peptides (Sic1^20pS69, Sic1^20pS80 and Sic1^20pS69/S80) for wild-type and mutant (Arg664Gln) Cdc4^WD40 were measured by intrinsic Trp fluorescence-binding experiments. The measurements were carried out by using an ATF 105 spectrometer (AVIV Instruments, Lakewood, NJ) equipped with an automatic titrator. The binding of the peptide fragments were monitored by using intrinsic tryptophan fluorescence with an excitation wavelength of 298 nm and an emission wavelength of 366 nm. All measurements were performed in 50 mM Tris, 150 mM NaCl, 5 mM DTT, pH 7.5 at 20 °C. The concentration of Cdc4 was 0.5 μM for all measurements. […] Association constants were calculated using the formula Ka=1/Kd. Prism 4.0 software (GraphPad Software, San Diego, CA) was used for statistical analysis (non-paired Student t test), and P values <0.05 were considered significant. Each experiment was repeated at least three times.

R655Q Cdc4^WD40 [2] = molecular target: T2, R655Q Cdc4^WD40 (Saccharomyces cerevisiae, UniProt P07834, R655Q); experiment: Intrinsic Trp fluorescence binding, R655Q Cdc4^WD40; design: species or system yeast; conditions: in vitro Trp fluorescence
T2 construct: Cdc4^WD40 (residues 367-744) was expressed from pET-Sumo (Invitrogen); His-SUMO (pET-Sumo vector) (N, cleaved yes); made in house; host or cells: Escherichia coli (host printed only for the NMR samples)

R655Q Cdc4^WD40 [3] = molecular target: T3, R655Q Cdc4^WD40 (yeast, UniProt P07834 367-744, R655Q); experiment: other fluorescence titration; intrinsic Trp fluorescence (excitation 298 nm, emission 366 nm); 0.5 μM Cdc4, ligand titrated; 50 mM Tris, 150 mM NaCl, 5 mM DTT, pH 7.5, 20 °C; 1:1 stoichiometry assumed
T3 construct: Cdc4, yeast F-box protein, WD40 domain, residues 367-744, with Arg655Gln in the allosteric pocket; also called Arg655Gln Cdc4^WD40; source: E. coli, purified as the wild type (Ni-NTA, Ulp protease, Ni-NTA, Superdex 200)
T3 sequence (looked up): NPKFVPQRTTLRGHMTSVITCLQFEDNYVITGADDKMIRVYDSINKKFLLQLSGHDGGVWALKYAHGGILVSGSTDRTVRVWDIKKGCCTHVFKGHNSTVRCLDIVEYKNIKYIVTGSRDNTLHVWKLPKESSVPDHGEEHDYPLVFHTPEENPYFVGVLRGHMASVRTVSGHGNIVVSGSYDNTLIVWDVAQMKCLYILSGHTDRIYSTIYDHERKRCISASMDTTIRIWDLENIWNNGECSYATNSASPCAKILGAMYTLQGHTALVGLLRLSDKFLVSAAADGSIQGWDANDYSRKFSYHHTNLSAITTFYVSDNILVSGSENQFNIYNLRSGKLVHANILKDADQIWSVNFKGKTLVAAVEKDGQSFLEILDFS

[4] = molecular target: Cdc4^WD40 (isolated WD40 domain of the yeast F-box protein Cdc4, residues 367-744), wild type (yeast) (UniProt P07834); experiment: as above
R664Q Cdc4^WD40 [5] = molecular target: T4, R664Q Cdc4^WD40 (yeast, UniProt P07834 367-744, R664Q); experiment: as above
T4 construct: Cdc4, yeast F-box protein, WD40 domain, residues 367-744, with Arg664Gln in the allosteric pocket; also called Arg664Gln Cdc4^WD40; mutant (Arg664Gln) Cdc4^WD40; source: E. coli, purified as the wild type (Ni-NTA, Ulp protease, Ni-NTA, Superdex 200)
T4 sequence (looked up): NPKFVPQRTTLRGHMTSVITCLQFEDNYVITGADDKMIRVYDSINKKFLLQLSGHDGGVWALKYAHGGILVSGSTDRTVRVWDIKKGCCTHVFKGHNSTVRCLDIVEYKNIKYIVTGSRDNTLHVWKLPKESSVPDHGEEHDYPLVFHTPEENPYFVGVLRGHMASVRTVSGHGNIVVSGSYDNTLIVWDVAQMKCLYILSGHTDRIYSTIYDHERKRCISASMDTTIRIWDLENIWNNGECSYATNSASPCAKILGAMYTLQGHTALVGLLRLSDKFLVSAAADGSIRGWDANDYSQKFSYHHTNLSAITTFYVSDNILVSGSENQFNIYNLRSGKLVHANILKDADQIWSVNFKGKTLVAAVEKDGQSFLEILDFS

Cdc4 = conditions: Sic1 phosphorylated on between 4 and 6 low-affinity CPD sites; read-out: Kd of high-affinity Sic1-Cdc4 interaction; cited from earlier work
From the text: WD40 domains, and the related Kelch β-propeller domains, mediate protein interactions in many contexts and together form the largest domain family in the human genome. WD40 domain proteins are a predominant class of substrate receptor in the ubiquitin-proteasome system, found in F-box proteins and other subunits of the cullin-RING (CRL) ubiquitin ligases. The WD40 domain of the yeast F-box protein Cdc4 (Cdc4^WD40) recognizes substrates via phosphorylated motifs termed Cdc4 phosphodegrons (CPDs). One of the best characterized Cdc4 substrates is the cyclin dependent kinase inhibitor ...

[6] = molecular target: T5, Cdc4^WD40 (isolated WD40 domain of the yeast F-box protein Cdc4, residues 367-744), wild type (yeast, UniProt P07834 367-744); experiment: NMR titration; 2D 13C-1H TROSY HMQC at 10 °C on 200 μM IM-labelled Cdc4^WD40 with increasing concentrations of unlabelled ligand; 100% D2O, 50 mM Na2HPO4 pH 8.0, 150 mM NaCl, 2 mM DTT; conditions: both partners purified
T5 construct: Cdc4, yeast F-box protein, WD40 domain, residues 367-744; For the NMR experiments the protein was U-[15N,2H], Ile-delta1-[13CH3], Met-epsilon-[13CH3] labelled (IM-labelled); also called wt Cdc4^WD40; Cdc4 WD40 domain; source: E. coli BL21(DE3) codonPlus, purified (Ni-NTA, Ulp protease, Ni-NTA, Superdex 200)
T5 sequence (looked up): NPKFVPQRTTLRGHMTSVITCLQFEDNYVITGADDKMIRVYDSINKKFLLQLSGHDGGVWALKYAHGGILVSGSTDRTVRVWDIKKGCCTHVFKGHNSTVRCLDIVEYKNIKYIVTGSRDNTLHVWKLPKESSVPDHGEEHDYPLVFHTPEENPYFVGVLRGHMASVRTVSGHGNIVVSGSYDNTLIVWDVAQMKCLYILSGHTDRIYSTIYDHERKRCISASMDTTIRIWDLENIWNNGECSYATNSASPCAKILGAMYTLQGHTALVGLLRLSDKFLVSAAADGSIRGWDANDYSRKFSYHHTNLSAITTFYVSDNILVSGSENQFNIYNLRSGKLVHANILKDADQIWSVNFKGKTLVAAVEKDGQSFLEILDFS

[7] = molecular target: T5, Cdc4^WD40 (isolated WD40 domain of the …); experiment: ITC; 20 °C; cell 30 μM Cdc4^WD40, syringe 100 μM pSic1; 50 mM Na2HPO4 pH 7.2, 150 mM NaCl, 2 mM β-mercaptoethanol; single-site binding model; conditions: both partners purified
R664Q Cdc4^WD40 [8] = molecular target: T4, R664Q Cdc4^WD40; experiment: other fluorescence titration; intrinsic Trp fluorescence (excitation 298 nm, emission 366 nm); 0.5 μM Cdc4, ligand titrated; 50 mM Tris, 150 mM NaCl, 5 mM DTT, pH 7.5, 20 °C; 1:1 stoichiometry assumed; conditions: both partners purified
[9] = molecular target: T5, Cdc4^WD40 (isolated WD40 domain of the …); experiment: as above; conditions: both partners purified
Cdc4-Skp1 = conditions: read-out: Kd for pSic1-Cdc4-Skp1 by intrinsic tryptophan (Trp) fluorescence; cited from earlier work

CC(=O)NCC(=O)N[C@@H](CC(C)C)C(=O)N[C@@H](CC(C)C)C(=O)N[C@H](C(=O)N1CCC[C@H]1C(=O)N1CCC[C@H]1C(=O)N[C@@H](CCC(N)=O)C(=O)N[C@@H](CO)C(=O)NCC(N)=O)[C@@H](C)OP(=O)(O)O [CycE] (Ac-GLL[pT]PPQSG-NH2; N-terminus and C-terminus assumed)
change of affinity for Arg664Gln Cdc4^WD40 versus wild-type (R664Q Cdc4^WD40 [1]): did not significantly reduce | change of affinity for Arg655Gln Cdc4^WD40 versus wild-type (R655Q Cdc4^WD40 [2]): did not significantly reduce

CycE phosphopeptide (singly phosphorylated high-affinity CPD peptide derived from cyclin E)
Kd (R655Q Cdc4^WD40 [3]): 2.9 µM | Kd [4]: 2.21 µM | Kd (R664Q Cdc4^WD40 [5]): 1.47 µM

B1: Sic1: cyclin dependent kinase inhibitor, Cdc4 substrate; here phosphorylated on 4 to 6 CPD sites (protein, UniProt P38634 1-284, looked up)
Protein SIC1: MTPSTPPRSRGTRYLAQPSGNTSSSALMQGQKTPQKPSQNLVPVTPSTTKSFKNAPLLAPPNSNMGMTSPFNGLTSPQRSPFPKSSVKRTLFQFESHDNGTVREEQEPLGRVNRILFPTQQNVDIDAAEEEEEGEVLLPPSRPTSARQLHLSLERDEFDQTHRKKIIKDVPGTPSDKVITFELAKNWNNNSPKNDARSQESEDEEDIIINPVRVGKNPFASDELVTQEIRNERKRAMLRENPDIEDVITYVNKKGEVVEKRRLTDEEKRRFKPKALFQSRDQEH
modifications: phosphorylated
notes: here phosphorylated on 4 to 6 CPD sites
Kd (Cdc4): ~1 µM

B2: Ash1^18pT286/pT290/pS294 triphosphopeptide (unlabelled) (peptide)
peptide: AWSI[pT]PPV[pT]PPM[pS]PPTNR
notes: Ash1 transcriptional repressor, 18-residue peptide printed as AWSIpTPPVpTPPMpSPPTNR; the text says derived from Ash1 residues 283-299; the unlabelled form was used for NMR; also called triply phosphorylated Ash1 peptide; the peptide phosphorylated on all three CPDs
binding result [6]: binds

B3: pSic1 (N-terminal targeting region of Sic1, residues 1-90, phosphorylated to completion by Cln2-Cdc28-Cks1 kinase) (domain or fragment, yeast, UniProt P38634 1-90, looked up)
chain: MTPSTPPRSRGTRYLAQPSGNTSSSALMQGQKTPQKPSQNLVPVTPSTTKSFKNAPLLAPPNSNMGMTSPFNGLTSPQRSPFPKSSVKRT
modifications: phosphorylated to completion by Cln2-Cdc28-Cks1 kinase; contains 7 of the 9 Sic1 CPD sites (the residues are not listed)
notes: also called pSic1 (1-90); pSic1^1-90
Kd [7]: 0.8 ± 0.12 µM | Kd (R655Q Cdc4^WD40 [3]; both partners purified): 4.16 µM | Kd (R664Q Cdc4^WD40 [8]): 4.96 µM | Kd [9]: 1.3 µM | Kd (Cdc4-Skp1): 0.6 µM
